The source of these data is the RNAGym collection of RNA variant scans (doi:10.1093/molbev/msab373).

B1: Azoarcus group I ribozyme (parent)
chain: GUGCCUUGCGCCGGGAAACCACGCAAGGGAUGGUGUCAAAUUCGGCGAAACCUAAGCGCCCGCCCGGGCGUAUGGCAACGCCGAGCCAAGCUUCGGCGCCUGCGCCGAUGAAGGUGUAGAGACUAGACGGCACCCACCUAAGGCAAACGCUAUGGUGAAGGCAUAGUCCAGGGAGUGGCGAAAGUCACACAAACCGG

The series covers variants of B1. Briefly: reverse-splicing fitness (ratio to wild type); higher = more active; in vitro selection; Mg2+ level not given. The method in brief: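 An in vitro group I ribozyme library with randomized positions was T7-transcribed and gel-purified. In triplicate, 10 pmol RNA in EPPS pH 7.5 was reacted with 50 pmoles of a 30-nt RNA substrate for 1 h at 37 °C across several added MgCl2 levels (1–48 mM), then stopped with EDTA. Products were reverse transcribed from a substrate-complementary primer, PCR-amplified and sequenced (HiSeq 4000). Fitness is a variant's read proportion after selection over that before, normalised to wild type.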
With C82U A111U A120U A145C C150A C169G U176A, the reverse-splicing fitness is 0.00269.

Consider C82U A111U A120U A145C C150A C169G U176C, for which the reverse-splicing fitness was found to be 0.00255.

On to C82U A111U A120U A145C C150A C169G U176G, for which the reverse-splicing fitness amounted to 0.00189.

As to C82U A111U A120G C150U C169A, the reverse-splicing fitness came to 0.0102.

As for C82U A111U A120G C150U C169U, the reverse-splicing fitness was 0.00882.

As to C82U A111U A120G C150U C169G, the reverse-splicing fitness turned out to be 0.00909.

For the variant C82U A111U A120U A145U, the reverse-splicing fitness turned out to be 0.0252.

Consider C82U A111U A120U A145G, for which the reverse-splicing fitness came to 0.0251.

Regarding C82U A111U A120U A145C, the reverse-splicing fitness came to 0.0211.

Take C82U A111U A120U A145C C150A C169A U176A: the reverse-splicing fitness turned out to be 0.00203.

For the variant C82U A111U A120U A145C C150A C169A U176G, the reverse-splicing fitness worked out at 0.00264.

In the case of C82U A111U A120U A145C C150A C169A U176C, the reverse-splicing fitness is 0.00217.

Consider C82U A111U A120G A145G C150U C169A U176A, for which the reverse-splicing fitness was found to be 0.0135.

Turning to C82U A111U A120G A145G C150U C169A U176G, the reverse-splicing fitness came to 0.00525.

Turning to C82U A111U A120G A145G C150U C169A U176C, the reverse-splicing fitness turned out to be 0.0123.

Turning to C82U A111U A120U A145G C150G C169U U176C, the reverse-splicing fitness came out at 0.0058.

Consider C82U A111U A120U A145G C150G C169U U176G, for which the reverse-splicing fitness stood at 0.00345.

C82U A111U A120U A145G C150G C169U U176A: the reverse-splicing fitness turned out to be 0.00611.

As to C82U A111U A120U A145C C169A, the reverse-splicing fitness is 0.00225.

For the variant C82U A111U A120U A145C C169U, the reverse-splicing fitness is 0.00314.

On to C82U A111U A120U A145C C169G, for which the reverse-splicing fitness worked out at 0.00316.

On to C82U A111U A120G A145G, for which the reverse-splicing fitness stood at 0.0162.

C82U A111U A120G A145U: the reverse-splicing fitness is 0.0147.

Take C82U A111U A120U A145G C150A C169G U176G: the reverse-splicing fitness was 0.00241.

For the variant C82U A111U A120U A145G C150A C169G U176A, the reverse-splicing fitness amounted to 0.00789.

As to C82U A111U A120U A145G C150A C169G U176C, the reverse-splicing fitness was found to be 0.0045.

Regarding C82U A111U A120G C150U C169G U176C, the reverse-splicing fitness amounted to 0.0168.

For C82U A111U A120G C150U C169G U176G, the reverse-splicing fitness is 0.00456.

Consider C82U A111U A120G C150U C169G U176A, for which the reverse-splicing fitness came out at 0.0146.

Regarding C82U A111U A120U A145C C150U C169U U176A, the reverse-splicing fitness came to 0.00211.

Regarding C82U A111U A120U A145C C150U C169U U176G, the reverse-splicing fitness was 0.00212.

With C82U A111U A120U A145C C150U C169U U176C, the reverse-splicing fitness was 0.00256.

In the case of C82U A111U A120G A145G C150A U176C, the reverse-splicing fitness is 0.0166.

As to C82U A111U A120G A145G C150A U176G, the reverse-splicing fitness worked out at 0.00603.

For C82U A111U A120G A145G C150A U176A, the reverse-splicing fitness was found to be 0.0093.

As to C82U A111U A120G A145U U176A, the reverse-splicing fitness turned out to be 0.012.

On to C82U A111U A120G A145U U176C, for which the reverse-splicing fitness worked out at 0.0131.

For the variant C82U A111U A120G A145U U176G, the reverse-splicing fitness was 0.0045.

Take C82U A111U A120G A145G C169A U176G: the reverse-splicing fitness came out at 0.00433.

For C82U A111U A120G A145G C169A U176C, the reverse-splicing fitness was 0.031.

With C82U A111U A120G A145G C169A U176A, the reverse-splicing fitness amounted to 0.0205.

On to C82U A111U A120U A145C C150A U176G, for which the reverse-splicing fitness turned out to be 0.00245.

C82U A111U A120U A145C C150A U176A: the reverse-splicing fitness is 0.00354.

In the case of C82U A111U A120U A145C C150A U176C, the reverse-splicing fitness was 0.00387.

As to C82U A111U A120G A145G C150G C169U U176C, the reverse-splicing fitness is 0.0112.

Take C82U A111U A120G A145G C150G C169U U176G: the reverse-splicing fitness stood at 0.00647.

Turning to C82U A111U A120G A145G C150G C169U U176A, the reverse-splicing fitness was found to be 0.012.

As for C82U A111U A120U A145G C150G C169A U176G, the reverse-splicing fitness amounted to 0.00474.

C82U A111U A120U A145G C150G C169A U176A: the reverse-splicing fitness came to 0.0098.

Regarding C82U A111U A120U A145G C150G C169A U176C, the reverse-splicing fitness stood at 0.00711.

In the case of C82U A111U A120G C150G C169G U176C, the reverse-splicing fitness was determined as 0.00449.

C82U A111U A120G C150G C169G U176A: the reverse-splicing fitness was found to be 0.00605.

In the case of C82U A111U A120G C150G C169G U176G, the reverse-splicing fitness stood at 0.00425.

As for C82U A111U A120G A145G C150G C169A U176G, the reverse-splicing fitness worked out at 0.00764.

For the variant C82U A111U A120G A145G C150G C169A U176C, the reverse-splicing fitness amounted to 0.0113.

With C82U A111U A120G A145G C150G C169A U176A, the reverse-splicing fitness came to 0.0128.

As to C82U A111U A120G A145U C150U U176C, the reverse-splicing fitness was found to be 0.013.

For C82U A111U A120G A145U C150U U176A, the reverse-splicing fitness was determined as 0.00953.

For C82U A111U A120G A145U C150U U176G, the reverse-splicing fitness turned out to be 0.00443.

As to C82U A111U A120U A145C C150G C169U U176C, the reverse-splicing fitness is 0.0022.

C82U A111U A120U A145C C150G C169U U176A: the reverse-splicing fitness worked out at 0.00255.

For C82U A111U A120U A145C C150G C169U U176G, the reverse-splicing fitness came out at 0.00218.

For C82U A111U A120U A145G C150U C169U, the reverse-splicing fitness came out at 0.00435.

As to C82U A111U A120U A145G C150U C169G, the reverse-splicing fitness amounted to 0.0051.

C82U A111U A120U A145G C150U C169A: the reverse-splicing fitness was 0.00562.

C82U A111U A120G C169G U176A: the reverse-splicing fitness stood at 0.0203.

In the case of C82U A111U A120G C169G U176C, the reverse-splicing fitness was found to be 0.0225.

For C82U A111U A120G C169G U176G, the reverse-splicing fitness was determined as 0.00437.

C82U A111U A120U A145G C150U U176A: the reverse-splicing fitness stood at 0.00787.

For C82U A111U A120U A145G C150U U176C, the reverse-splicing fitness is 0.0115.

As to C82U A111U A120U A145G C150U U176G, the reverse-splicing fitness turned out to be 0.00322.

With C82U A111U A120G A145G C150U C169U U176C, the reverse-splicing fitness amounted to 0.014.

Take C82U A111U A120G A145G C150U C169U U176G: the reverse-splicing fitness came out at 0.00481.

Take C82U A111U A120G A145G C150U C169U U176A: the reverse-splicing fitness was found to be 0.0194.

In the case of C82U A111U A120G A145C C169U, the reverse-splicing fitness is 0.00777.

In the case of C82U A111U A120U A145C C150G U176G, the reverse-splicing fitness was 0.00213.

Regarding C82U A111U A120U A145C C150G U176C, the reverse-splicing fitness is 0.00408.

In the case of C82U A111U A120U A145C C150G U176A, the reverse-splicing fitness came out at 0.00287.

C82U A111U A120G A145U C150G C169U U176C: the reverse-splicing fitness worked out at 0.0111.

For the variant C82U A111U A120G A145U C150G C169U U176G, the reverse-splicing fitness is 0.00463.

For the variant C82U A111U A120G A145U C150G C169U U176A, the reverse-splicing fitness was 0.0116.

On to C82U A111U A120G A145U C150A C169A, for which the reverse-splicing fitness was 0.00884.

As for C82U A111U A120G A145U C150A C169G, the reverse-splicing fitness is 0.00728.

For C82U A111U A120G A145U C150A C169U, the reverse-splicing fitness worked out at 0.0062.
